Legend:
[1] = molecular target: Epstein-Barr virus (Herpesvirus 4) EBV Glycoprotein gp350/EBV GP350 Protein (His Tag) (Sino Biologic (Epstein-Barr virus (Herpesvirus 4)) (UniProt P03200))
[2] = molecular target: Human Metapneumovirus (hMPV) B Glycoprotein G, His-Tag (HEK293) (Native Antigen Company #REC31948-10 (Human Metapneumovirus (hMPV) B))
[3] = molecular target: Human cytomegalovirus (HCMV) Glycoprotein B/gB Protein (His Tag) (Sino Biological 10202-V08H1), as b (Human cytomegalovirus (HCMV))
[4] = molecular target: Influenza B [B/Washington/02/2019 (B/Victoria lineage)-like virus] Hemagglutinin (HA), His-Tag (Nati (Influenza B [B/Washington/02/2019 (B/Victoria lineage)-like virus]))
[5] = molecular target: SARS-CoV-2 (2019-nCoV) Spike S1-His Recombinant Protein (Sino Biological Cat: 40591-VO8H), as barcode-linked antigen (SARS-CoV-2 (2019-nCoV)) (UniProt P0DTC2)
[6] = molecular target: Varicella-Zoster Virus Heterodimer gE/gI (HEK293), His-tag (Native Antigen Company #REC31907-100), a (Varicella-Zoster Virus) (UniProt P09259)
[7] = molecular target: SARS-CoV-2 (2019-nCoV) Spike S1-His Recombinant Protein (Sino Biological Cat: 40591-VO8H), as barcode-linked antigen (SARS-CoV-2 (2019-nCoV)) (UniProt P0DTC2); remark: listed apart in the source

UniProt P09259, sequence (P09259 31-538 limits assumed, chain 1 of 2): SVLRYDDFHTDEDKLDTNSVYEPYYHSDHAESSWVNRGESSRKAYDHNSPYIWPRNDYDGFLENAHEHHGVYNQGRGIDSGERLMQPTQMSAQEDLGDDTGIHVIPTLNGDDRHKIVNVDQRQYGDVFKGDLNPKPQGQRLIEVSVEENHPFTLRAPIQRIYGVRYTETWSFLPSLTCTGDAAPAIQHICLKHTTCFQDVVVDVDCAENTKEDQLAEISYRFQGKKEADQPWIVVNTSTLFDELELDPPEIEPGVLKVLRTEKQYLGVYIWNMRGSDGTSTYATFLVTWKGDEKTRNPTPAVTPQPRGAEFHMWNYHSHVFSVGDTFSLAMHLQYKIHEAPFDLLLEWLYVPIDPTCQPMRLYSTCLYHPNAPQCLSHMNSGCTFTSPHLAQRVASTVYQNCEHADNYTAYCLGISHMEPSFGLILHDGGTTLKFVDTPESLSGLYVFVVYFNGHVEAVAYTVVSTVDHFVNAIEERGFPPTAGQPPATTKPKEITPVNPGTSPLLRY
UniProt P09259, sequence (P09258 18-295 limits assumed, chain 2 of 2, further chain): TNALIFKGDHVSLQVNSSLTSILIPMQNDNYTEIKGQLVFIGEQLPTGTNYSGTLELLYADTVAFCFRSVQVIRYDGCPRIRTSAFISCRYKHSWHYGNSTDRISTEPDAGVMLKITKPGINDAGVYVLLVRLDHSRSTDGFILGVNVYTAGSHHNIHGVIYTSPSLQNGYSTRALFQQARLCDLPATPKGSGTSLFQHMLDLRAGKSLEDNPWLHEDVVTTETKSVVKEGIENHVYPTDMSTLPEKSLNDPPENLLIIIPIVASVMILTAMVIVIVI
UniProt P03200, sequence (P03200 1-470): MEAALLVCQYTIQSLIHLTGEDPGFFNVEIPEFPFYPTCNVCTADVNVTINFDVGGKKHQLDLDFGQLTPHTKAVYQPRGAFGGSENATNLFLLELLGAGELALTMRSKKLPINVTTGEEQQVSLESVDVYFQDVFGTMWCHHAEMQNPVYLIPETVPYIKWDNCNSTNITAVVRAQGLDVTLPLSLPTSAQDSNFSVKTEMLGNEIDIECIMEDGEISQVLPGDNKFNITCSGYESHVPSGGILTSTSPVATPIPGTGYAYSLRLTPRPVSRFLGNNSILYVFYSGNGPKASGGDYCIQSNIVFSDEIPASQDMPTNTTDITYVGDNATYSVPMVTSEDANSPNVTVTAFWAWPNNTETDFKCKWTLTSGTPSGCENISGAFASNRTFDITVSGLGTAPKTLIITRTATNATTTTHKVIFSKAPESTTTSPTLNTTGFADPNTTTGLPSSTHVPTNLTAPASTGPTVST

Substance: SARS-CoV-2 (2019-nCoV) Nucleocapsid Antibody, Rabbit MAb (Sino Biological Cat: 40143-R019)
- barcode sequence counts (EBV) [1]: 1080 counts
- barcode sequence counts (hMPV) [2]: 201 counts
- barcode sequence counts (HCMV) [3]: 836 counts
- barcode sequence counts (FLU B) [4]: 185 counts
- barcode sequence counts (COVID Spike) [5]: 900 counts
- barcode sequence counts (VZV) [6]: 200 counts
- Spike #/Nuc # [7]: 0.291
